# Source: US8329168
# System: Met-SC1-325-His-6 (fragment comprising residues 1-325 of staphylocoagulase with an additional Met at the NH2 terminus and a His tag fused to the COOH terminus)
substance,measurement,value
IIQ320 (recombinant human prothrombin containing Gln in place of Arg-320),conformational activation (initial rates of S2238 hydrolysis),Conformational activation of IIQ320 and its covalent inactivation with FPR-CH2Cl was accomplished by the addition of 43 µM Met-SC1-325-His-6
